Holding throughout (conditions): both partners purified
Assay [1] has as its target T1, Human Rac1 (residues 1-177), GMPPNP-loaded (human, UniProt P63000 1-177). As to the kind of experiment: ITC; POSH_(315-380) (1000 uM) titrated into GMPPNP-loaded Rac1 (125 uM), 35 °C, 50 mM HEPES pH 6.9, 150 mM NaCl, 5 mM MgCl2, 2 mM TCEP; model 'One set of sites'; duplicates.
The target in assay [2] is T1, Human Rac1 (residues 1-177), …. As to the kind of experiment: ITC; Kd at 25 °C not measured directly (binding enthalpy close to 0); estimated through linear extrapolation of the Gibbs free energy measured by ITC at 5, 10, 15 and 35 °C; same buffer.
Assay [3] shares this target. As to the kind of experiment: NMR 15N CEST; 15N POSH_(315-380) (500 uM) with 20% molar ratio of Rac1 (100 uM), 950 MHz, four B1 fields (5.2, 10.3, 20.5, 68.6 Hz); global fit with a linear 4-site exchange model (ChemEx), total bound population fixed from Kd = 24 uM at 25 °C.

For orientation: Kd means a measure of binding affinity in units of concentration.

B1: POSH_(315-380), shorter construct of human POSH comprising MRE1 and MRE2 (domain or fragment)
chain: GHMWSQASQNRHSMEISPPVLISSSNPTAAARISELSGLSCSAPSQVHISTTGLIVTPPPSSPVTTGPSF
On to B1, for which the values for the Kd in assay [1] and in assay [2] were 21 to 46 µM and 24 µM, respectively. Besides, the “kAB (intermediate A to B, folding of the MRE1 helix on Rac1, 4-site model)” value in assay [3] turned out to be 72 s⁻¹. Moreover, the “kBC (intermediate B to final complex C, folding of MRE2 on Rac1, 4-site model)” value in assay [3] is 89 s⁻¹.
